The text below walks through data of US20080299088A1 (US Dept. of Health and Human Services, published 2008).

The target of this assay is Notch-1 receptor on RIN 1046-38 clonal rat beta-cells (rat, UniProt Q07008 19-2531). Kind of assay: cell-based or functional assay.
Chain of Notch-1 receptor on RIN 1046-38 clonal rat beta-cells (Q07008 19-2531): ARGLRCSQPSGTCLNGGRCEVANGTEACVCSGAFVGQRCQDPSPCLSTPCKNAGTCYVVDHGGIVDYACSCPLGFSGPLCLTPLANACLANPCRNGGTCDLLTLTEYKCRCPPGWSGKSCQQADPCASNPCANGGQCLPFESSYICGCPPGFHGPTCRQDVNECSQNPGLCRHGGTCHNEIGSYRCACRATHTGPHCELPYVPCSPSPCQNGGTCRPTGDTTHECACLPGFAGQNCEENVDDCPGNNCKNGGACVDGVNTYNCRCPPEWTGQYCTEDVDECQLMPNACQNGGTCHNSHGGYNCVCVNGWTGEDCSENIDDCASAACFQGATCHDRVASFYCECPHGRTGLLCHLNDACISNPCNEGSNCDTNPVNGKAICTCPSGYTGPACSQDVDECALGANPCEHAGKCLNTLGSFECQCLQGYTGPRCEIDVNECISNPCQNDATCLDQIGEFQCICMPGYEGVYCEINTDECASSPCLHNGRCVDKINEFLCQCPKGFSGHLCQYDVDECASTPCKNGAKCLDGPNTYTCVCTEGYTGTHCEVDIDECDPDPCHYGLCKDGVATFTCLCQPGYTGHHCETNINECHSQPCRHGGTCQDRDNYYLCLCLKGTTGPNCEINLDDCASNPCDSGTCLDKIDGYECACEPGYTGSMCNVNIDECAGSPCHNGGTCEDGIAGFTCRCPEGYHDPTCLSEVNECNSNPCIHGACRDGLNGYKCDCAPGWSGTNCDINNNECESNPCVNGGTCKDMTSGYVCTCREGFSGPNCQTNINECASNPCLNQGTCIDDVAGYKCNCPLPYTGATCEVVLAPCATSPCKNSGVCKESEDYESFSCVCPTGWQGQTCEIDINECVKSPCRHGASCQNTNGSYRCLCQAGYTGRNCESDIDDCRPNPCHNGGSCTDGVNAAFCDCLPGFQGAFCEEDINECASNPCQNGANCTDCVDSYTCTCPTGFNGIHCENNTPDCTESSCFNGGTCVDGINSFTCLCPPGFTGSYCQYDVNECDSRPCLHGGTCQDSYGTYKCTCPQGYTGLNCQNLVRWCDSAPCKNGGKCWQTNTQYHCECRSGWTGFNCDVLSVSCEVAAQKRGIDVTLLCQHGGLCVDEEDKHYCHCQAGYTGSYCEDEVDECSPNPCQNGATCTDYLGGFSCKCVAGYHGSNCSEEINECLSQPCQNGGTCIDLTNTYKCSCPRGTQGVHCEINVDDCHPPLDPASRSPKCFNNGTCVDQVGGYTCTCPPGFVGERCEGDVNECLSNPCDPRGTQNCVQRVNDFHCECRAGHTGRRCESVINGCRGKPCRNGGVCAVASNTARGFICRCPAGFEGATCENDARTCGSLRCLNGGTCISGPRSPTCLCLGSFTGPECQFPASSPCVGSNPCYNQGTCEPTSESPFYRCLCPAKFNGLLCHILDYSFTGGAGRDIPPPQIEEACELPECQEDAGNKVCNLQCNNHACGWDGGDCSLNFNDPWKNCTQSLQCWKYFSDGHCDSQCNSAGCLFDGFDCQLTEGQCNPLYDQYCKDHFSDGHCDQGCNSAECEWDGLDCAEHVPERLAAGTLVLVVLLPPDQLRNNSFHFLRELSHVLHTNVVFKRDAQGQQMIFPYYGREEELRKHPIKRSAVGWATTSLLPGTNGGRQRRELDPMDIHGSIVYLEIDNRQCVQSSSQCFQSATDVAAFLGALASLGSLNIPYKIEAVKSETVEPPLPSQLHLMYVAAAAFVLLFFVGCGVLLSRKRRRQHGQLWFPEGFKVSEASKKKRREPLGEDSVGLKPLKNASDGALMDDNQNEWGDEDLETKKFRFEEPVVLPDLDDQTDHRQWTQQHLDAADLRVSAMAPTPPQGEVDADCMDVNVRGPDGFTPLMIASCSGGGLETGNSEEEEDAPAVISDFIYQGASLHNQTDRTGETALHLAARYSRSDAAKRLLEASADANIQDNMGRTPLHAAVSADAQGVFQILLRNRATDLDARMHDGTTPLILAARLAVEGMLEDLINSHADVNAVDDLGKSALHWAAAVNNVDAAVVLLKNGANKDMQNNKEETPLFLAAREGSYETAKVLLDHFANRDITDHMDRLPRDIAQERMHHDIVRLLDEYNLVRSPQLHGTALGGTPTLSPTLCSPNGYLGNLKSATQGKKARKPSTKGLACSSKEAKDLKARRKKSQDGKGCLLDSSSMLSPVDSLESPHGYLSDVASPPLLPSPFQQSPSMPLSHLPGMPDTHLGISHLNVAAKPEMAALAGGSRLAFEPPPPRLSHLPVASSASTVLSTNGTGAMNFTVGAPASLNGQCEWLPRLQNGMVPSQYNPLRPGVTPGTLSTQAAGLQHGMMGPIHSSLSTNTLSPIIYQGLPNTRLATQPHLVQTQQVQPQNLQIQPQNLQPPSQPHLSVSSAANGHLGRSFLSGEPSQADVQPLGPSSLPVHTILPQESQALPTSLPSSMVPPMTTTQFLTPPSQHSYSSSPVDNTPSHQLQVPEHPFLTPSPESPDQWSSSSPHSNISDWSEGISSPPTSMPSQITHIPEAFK

Take CDDYYYGFGCNKFGRPRDD [Jagged peptide R-JAG]: the “NICD nuclear localization, R-JAG together with glucose” value was found to be 6 fold and the “NICD translocation (nuclear NICD, immunoblot of nuclear extracts of RIN cells)” value was 4 fold.

CDDYYYGFGCNKFCRPR [Jagged peptide JAG-1]: the “NICD translocation (nuclear NICD, immunoblot of nuclear extracts of RIN cells)” value came out at 4 fold.
